Test in all cases: ITC; H3K4me2 peptide injected (19 x 2 ul) into the protein; 25 °C; 25 mM Tris pH 8.0, 100 mM NaCl; iTC 200; one-site model
(In general: Isothermal titration calorimetry measures the heat released or taken up as one component is titrated into another.)

Experiment [1] has as its target free PHD finger of human Pygo1 (human).
Experiment [2] concerns the target PHD_(Pygo2)–HD1B9L complex (6×His-tagged, PHD linked to HD1; ITC construct) (human) (UniProt Q9BRQ0).
The target of experiment [3] is PHD_(Pygo1)–HD1_(BCL9) complex (6×His-tagged, PHD linked to HD1) (human) (UniProt Q9Y3Y4).
The target in experiment [4] is PHD_(Pygo2)–HD1B9L complex with Pygo2 W377F (human) (UniProt Q9BRQ0).
The target of experiment [5] is PHD_(Pygo2)–HD1B9L complex with Pygo2 I344A (human) (UniProt Q9BRQ0).
Experiment [6] addresses PHD_(Pygo2)–HD1_(BCL9) complex (human) (UniProt Q9BRQ0).
Experiment [7] addresses free PHD finger of human Pygo2 (human).
Experiment [8] addresses PHD_(Pygo1)–HD1B9L complex (human) (UniProt Q9Y3Y4).

As usually defined, the Kd is the free concentration of one partner at which half of the binding sites on the other are occupied at equilibrium, for simple one-to-one binding. High values mean lower affinity, low ones higher affinity. The term stoichiometry N denotes the number of molecules, sites or subunits per partner or assembly. With “15-mer H3K4me2 histone tail peptide (histone H3 tail dimethylated at lysine 4)”, the Kd in experiment [1] came to 5.93 µM; in experiment [2], 1.83 µM; in experiment [4] it was 11.5 µM; in experiment [5], 19.5 µM; in experiment [7], 4.95 µM. Moreover, the stoichiometry N in experiment [1], in experiment [2], in experiment [3], in experiment [6], in experiment [7] and in experiment [8] was 1 each time. Further, the fold increase in affinity over free PHD (Pygo1) in experiment [3] came to 2 fold.

These data come from publication PMC2927781.
